Data taken from patent US20190309079A1 (Regeneron, published 2019).

Molecular target: T1, LEPR-P316T (signaling-impaired mutant) on HEK293 reporter cells (human, UniProt P48357 22-1165)
T1 sequence: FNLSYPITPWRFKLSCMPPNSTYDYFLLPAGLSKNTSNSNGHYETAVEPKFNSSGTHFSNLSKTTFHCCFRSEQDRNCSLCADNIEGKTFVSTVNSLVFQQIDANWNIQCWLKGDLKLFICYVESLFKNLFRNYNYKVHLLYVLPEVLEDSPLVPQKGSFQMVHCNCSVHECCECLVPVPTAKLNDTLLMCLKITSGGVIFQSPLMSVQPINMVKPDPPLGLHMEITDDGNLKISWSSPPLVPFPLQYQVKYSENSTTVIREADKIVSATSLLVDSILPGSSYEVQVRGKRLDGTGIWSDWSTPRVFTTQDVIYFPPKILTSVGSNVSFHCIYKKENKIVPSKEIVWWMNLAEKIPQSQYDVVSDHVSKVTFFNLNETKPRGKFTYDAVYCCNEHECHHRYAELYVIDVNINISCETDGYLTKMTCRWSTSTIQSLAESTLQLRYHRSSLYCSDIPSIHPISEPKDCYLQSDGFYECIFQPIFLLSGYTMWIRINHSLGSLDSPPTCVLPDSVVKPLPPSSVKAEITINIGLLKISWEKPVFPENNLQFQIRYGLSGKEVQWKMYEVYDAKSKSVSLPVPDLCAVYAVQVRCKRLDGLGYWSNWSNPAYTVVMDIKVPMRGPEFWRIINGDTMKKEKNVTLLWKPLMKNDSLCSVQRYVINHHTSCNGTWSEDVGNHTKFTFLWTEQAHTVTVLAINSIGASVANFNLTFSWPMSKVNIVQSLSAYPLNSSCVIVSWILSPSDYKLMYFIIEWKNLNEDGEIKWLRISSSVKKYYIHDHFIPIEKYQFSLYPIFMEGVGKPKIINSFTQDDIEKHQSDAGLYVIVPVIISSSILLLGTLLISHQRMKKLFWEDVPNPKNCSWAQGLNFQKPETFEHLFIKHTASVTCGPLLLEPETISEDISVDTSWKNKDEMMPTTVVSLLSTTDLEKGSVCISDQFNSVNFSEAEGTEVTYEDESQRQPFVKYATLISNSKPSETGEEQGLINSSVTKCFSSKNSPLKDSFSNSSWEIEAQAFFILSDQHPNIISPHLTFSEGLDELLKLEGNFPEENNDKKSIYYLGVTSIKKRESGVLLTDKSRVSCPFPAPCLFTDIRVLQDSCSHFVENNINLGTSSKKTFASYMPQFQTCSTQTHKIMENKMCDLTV
Assay: cell-based or functional assay

EC50 (read off the curve), pSTAT3 Y705/STAT3 densitometry: ~3e-10 M
B1: H4H16679P2 (antibody, V domains shown)
VH: QVQLVESGGGVVQPGRSLRLSCTASGFTFSSYAMYWVRQAPGKGLEWVSVIYYDGSYKYYADSVKGRFTISRDNSKNTLYLQMDSLRAEDTAVYYCASYNWNYWYFDFWGRGTLVTVSS
VL: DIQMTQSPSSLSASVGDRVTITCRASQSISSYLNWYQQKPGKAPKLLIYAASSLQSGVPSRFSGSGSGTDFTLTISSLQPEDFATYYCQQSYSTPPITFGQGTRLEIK
